Data on 61 sequences can be found in the supplement of paper PMC10598134.

The nature of this series: collision cross section of modified peptide (TIMS, N2, iRT-aligned); higher = larger / more extended gas-phase ion. Put shortly: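 Collision cross section values rest on the Mason-Schamp equation applied to calibrated, run-aligned mobility data from synthetic peptides. Mobility (1/K0) was calibrated with three reference ions and aligned per run to the median iRT peptide deviation, and 1–3 technical replicates of the most abundant feature per charge state were averaged. Data came from a timsTOF Pro/HT in dda-PASEF mode (nitrogen, ~2.4 mbar) after a 120-min nanoflow C18 gradient at 60 °C.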

[1] abbreviates: charge state: 2, modification: Biotin.
Where [2] appears, read: charge state: 3, modification: Biotin.
Where [3] appears, read: charge state: 2, modification: Phospho (Y).
Where [4] appears, read: charge state: 2, modification: Nitro (Y).
Setting [5] is: charge state: 2, modification: Malonyl.
Setting [6] is: charge state: 3, modification: Malonyl.
Where [7] appears, read: charge state: 2, modification: Propionyl.
Where [8] appears, read: charge state: 2, modification: hydroxyisobutyryl.
Setting [9] is: charge state: 3, modification: Dimethyl (K).
Where [10] appears, read: charge state: 3, modification: Trimethyl (K).
[11] abbreviates: charge state: 2, modification: Methyl (K).
Where [12] appears, read: charge state: 3, modification: Methyl (K).
The mark [13] stands for this setting: charge state: 2, modification: Hydroxyproline.
Where [14] appears, read: charge state: 3, modification: Hydroxyproline.
The mark [15] stands for this setting: charge state: 2, modification: Citrullination (R).
The mark [16] stands for this setting: charge state: 3, modification: Citrullination (R).
[17] abbreviates: charge state: 3, modification: Butyryl.
The mark [18] stands for this setting: charge state: 2, modification: Succinyl.
Setting [19] is: charge state: 2, modification: Trimethyl (K).
[20] abbreviates: charge state: 2, modification: Formyl.
The mark [21] stands for this setting: charge state: 2, modification: Acetyl (K).
Setting [22] is: charge state: 3, modification: Succinyl.
The mark [23] stands for this setting: charge state: 2, modification: Dimethyl (K).
Where [24] appears, read: charge state: 2, modification: Glutarylation.
Setting [25] is: charge state: 2, modification: Crotonyl.
Setting [26] is: charge state: 3, modification: hydroxyisobutyryl.
Where [27] appears, read: charge state: 3, modification: Glutarylation.

± gives the standard deviation.

As for “PASGAGAGAGAGKR [_PASGAGAGAGAGK(Biotin)R_]”, the collision cross section runs as follows: under setting [1], 377.47 Å²; under setting [2], 490.64 Å².
Turning to IPPTYQIR [_IPPTY(Phospho (Y))QIR_], the collision cross section under setting [3] worked out at 350.25 ± 0.066 Å².
Under setting [4], IPPTYQIR [_IPPTY(Nitro (Y))QIR_] returned a collision cross section of 343.35 ± 0.72 Å².
As for “VLDSGAPIKIPVGPETLGR [_VLDSGAPIK(Malonyl)IPVGPETLGR_]”, the collision cross section came out at 468.64 ± 1.6 Å² under setting [5] and 512.64 ± 6.2 Å² under setting [6].
Consider “SITHSTVGSKGEK [_SITHSTVGSK(Propionyl)GEK_]”, for which the collision cross section was 395.17 ± 0.94 Å² under setting [7] and 443.25 ± 0.59 Å² (charge state: 3, modification: Propionyl).
Regarding “KFGVLSDNFK [_K(hydroxyisobutyryl)FGVLSDNFK_]”, the collision cross section under setting [8] was 378.39 ± 0.91 Å².
Sequence “LEEVTGKLQVAR [_LEEVTGK(hydroxyisobutyryl)LQVAR_]” had a collision cross section under setting [8] of 399.92 ± 0.3 Å².
“GETASKLQSEISR [_GETASK(Propionyl)LQSEISR_]”: the collision cross section under setting [7] came out at 387.23 ± 0.65 Å².
With “SKHLQEQLNELK [_SK(Dimethyl (K))HLQEQLNELK_]”, the collision cross section under setting [9] is listed as 492.51 ± 0.54 Å².
On to LDHLAEKFR [_LDHLAEK(Trimethyl (K))FR_], for which the collision cross section under setting [10] came to 436.32 ± 0.025 Å².
Regarding GSELQNYFTK [_GSELQNY(Nitro (Y))FTK_], under setting [4], the collision cross section was 363.07 ± 0.55 Å².
For the sequence “IPAASAAAMNLASAR [_IPAASAAAMNLAS(HexNAc (ST))AR_]”, the collision cross section (charge state: 2, modification: HexNAc (ST)) stood at 422.38 ± 0.62 Å².
With KFGVLSDNFK [_K(Methyl (K))FGVLSDNFK_], the collision cross section by setting is: under setting [11], 372.37 ± 0.47 Å²; under setting [12], 448.39 ± 4.9 Å².
Regarding “PGLKGEQGEPGAPGIR [_PGLKGEQGEPGAP(Hydroxyproline)GIR_]”, the collision cross section is, setting by setting: under setting [13], 410.74 ± 0.55 Å²; under setting [14], 508.4 ± 1.3 Å².
On to “PLRAASPFR [_PLR(Citrullination (R))AASPFR_]”, for which the collision cross section is recorded as 334.99 ± 0.26 Å² under setting [15] and 442.41 Å² under setting [16].
“YEQEHAAIQDKLFQVAK [_YEQEHAAIQDK(GlyGly (K))LFQVAK_]” registered a collision cross section (charge state: 3, modification: GlyGly (K)) of 562.29 ± 1.2 Å².
For the sequence “SPPLPEHQKIPCNSAEPK [_SPPLPEHQK(Butyryl)IPCNSAEPK_]”, the collision cross section under setting [17] came out at 542.36 ± 2 Å².
Consider “LTSLNVKYNNDK [_LTSLNVK(Methyl (K))YNNDK_]”, for which the collision cross section is reported as 408.99 ± 1.4 Å² under setting [11] and 486.12 ± 3.3 Å² under setting [12].
As to GFPGIQGRK [_GFP(Hydroxyproline)GIQGRK_], the collision cross section reads like this: under setting [13], 339.07 Å²; under setting [14], 407.07 Å².
For VGTASVLQPVKK [_VGTASVLQPVK(Biotin)K_], the collision cross section under setting [1] was determined as 406.39 ± 1.1 Å².
For the sequence SKHLQEQLNELK [_SK(Biotin)HLQEQLNELK_], under setting [2], the collision cross section is 520.89 Å².
Regarding TTEETSKPK [_TTEETSK(Succinyl)PK_], under setting [18], the collision cross section came to 347.17 ± 0.86 Å².
GVQYLNEIK [_GVQY(Phospho (Y))LNEIK_] gave a collision cross section under setting [3] of 357.38 ± 0.065 Å².
Take “INNFSADIKDSK [_INNFSADIK(Trimethyl (K))DSK_]”: the collision cross section worked out at 411.01 ± 0.61 Å² under setting [19] and 459.74 ± 1.8 Å² under setting [10].
Turning to SKLLFSNTAAQK [_SK(Formyl)LLFSNTAAQK_], the collision cross section under setting [20] was found to be 390.83 ± 0.41 Å².
The sequence LEKTIDDLEEK [_LEK(Acetyl (K))TIDDLEEK_] returned a collision cross section under setting [21] of 403.37 ± 1 Å².
Under setting [19], “ILDLKTGTVK [_ILDLK(Trimethyl (K))TGTVK_]” came in with a collision cross section of 360.39 ± 1.1 Å².
As to “GGPGSTLSFVGKR [_GGPGSTLSFVGK(Succinyl)R_]”, the collision cross section reads like this: under setting [18], 387.5 ± 0.76 Å²; under setting [22], 434.26 Å².
On to “VEPGSLESSPGLGRGR [_VEPGSLESSPGLGR(Methyl (R))GR_]”, for which, where the note is “charge state: 3, modification: Methyl (R)”, the collision cross section was determined as 499.14 ± 2.2 Å².
For the sequence “ASAISIKLGSSK [_ASAISIK(Dimethyl (K))LGSSK_]”, the collision cross section is, setting by setting: under setting [23], 373.07 ± 0.36 Å²; under setting [9], 447.62 Å².
For TPNLYIYSKK [_TPNLYIYSK(Formyl)K_], under setting [20], the collision cross section came to 377.67 ± 0.9 Å².
Sequence “PASGAGAGAGAGKR [_PASGAGAGAGAGK(Acetyl (K))R_]” displayed a collision cross section under setting [21] of 357.24 ± 1 Å² and a collision cross section (charge state: 3, modification: Acetyl (K)) of 456.58 ± 2.9 Å².
Consider “TEVLSPNSKVESK [_TEVLSPNSK(Dimethyl (K))VESK_]”, for which the collision cross section is on record as 400.19 ± 1.6 Å² under setting [23] and 477.45 ± 2.4 Å² under setting [9].
As to “FVDSKVGEFSGANK [_FVDSK(Methyl (K))VGEFSGANK_]”, under setting [11], the collision cross section came to 434.66 Å².
“SGGRGVSVSSAR [_SGGR(Citrullination (R))GVSVSSAR_]”: the collision cross section under setting [15] came to 351.18 ± 4.8 Å².
Under setting [11], LDEKENLSAK [_LDEK(Methyl (K))ENLSAK_] came in with a collision cross section of 366.29 ± 0.55 Å².
The sequence “ITASLCDLKSR [_ITASLCDLK(Gluratylation)SR_]” displayed a collision cross section under setting [24] of 391.61 ± 1.4 Å².
“CSVLAAANPVYGR [_CSVLAAANPVY(Phospho (Y))GR_]” returned a collision cross section under setting [3] of 407.91 ± 1.2 Å².
As for “DYSAPVNFISAGLKK [_DYSAPVNFISAGLK(Crotonyl)K_]”, the collision cross section runs as follows: under setting [25], 438.67 ± 0.84 Å²; (charge state: 3, modification: Crotonyl) 525.96 ± 1.3 Å².
ALLQAKASGK [_ALLQAK(GlyGly (K))ASGK_] gave a collision cross section (charge state: 2, modification: GlyGly (K)) of 355.61 ± 0.57 Å².
Sequence PSVSTKLISK [_PSVSTK(Acetyl (K))LISK_] yielded a collision cross section under setting [21] of 351 ± 0.96 Å².
“ITLSKHQNVQLPR [_ITLSK(Malonyl)HQNVQLPR_]” showed a collision cross section under setting [6] of 478.94 ± 1.8 Å².
The sequence “LEKTIDDLEEK [_LEK(Gluratylation)TIDDLEEK_]” displayed a collision cross section under setting [24] of 410.17 ± 1.1 Å².
Regarding “SPSDSGYSYETIGKTTK [_SPSDSGYSYETIGK(Succinyl)TTK_]”, the collision cross section is on record as 453.06 ± 1.1 Å² under setting [18] and 530.11 ± 3 Å² under setting [22].
Under setting [24], “DLGKFQVATDALK [_DLGK(Gluratylation)FQVATDALK_]” displayed a collision cross section of 414.3 ± 0.6 Å².
Turning to “PASGAGAGAGAGKR [_PASGAGAGAGAGK(hydroxyisobutyryl)R_]”, the collision cross section runs as follows: under setting [8], 363.2 ± 0.9 Å²; under setting [26], 470.09 ± 2.8 Å².
Turning to “AAQASDLEKIHLDEK [_AAQASDLEK(Butyryl)IHLDEK_]”, the collision cross section was found to be 463.03 ± 1.1 Å² (charge state: 2, modification: Butyryl) and 499.42 ± 2.9 Å² under setting [17].
For SDDESSQKDIK [_SDDESSQK(Crotonyl)DIK_], the collision cross section under setting [25] was 379.43 ± 0.8 Å².
Regarding ASAISIKLGSSK [_ASAISIK(Malonyl)LGSSK_], the collision cross section under setting [5] was 370.34 ± 0.77 Å².
“VTPHPSPRGSPLPTPK [_VTPHPSPR(Citrullination (R))GSPLPTPK_]” registered a collision cross section under setting [15] of 409.96 ± 0.55 Å² and a collision cross section under setting [16] of 504.78 ± 11 Å².
“DAIHFYNKSLAEHR [_DAIHFYNK(Dimethyl (K))SLAEHR_]” returned a collision cross section under setting [9] of 497.01 ± 1.6 Å².
Turning to “DESFLGKLGGTLAR [_DESFLGK(Malonyl)LGGTLAR_]”, the collision cross section is, setting by setting: under setting [5], 413.79 ± 1.2 Å²; under setting [6], 487.95 Å².
Consider “LGVPGLPGYPGRQGPK [_LGVPGLP(Hydroxyproline)GYPGRQGPK_]”, for which the collision cross section by setting is: under setting [13], 416.79 ± 1.1 Å²; under setting [14], 499.55 ± 1.2 Å².
Regarding “SGKFTQQDIDEAK [_SGK(Dimethyl (K))FTQQDIDEAK_]”, the collision cross section under setting [23] was 408.63 Å² and the collision cross section under setting [9] turned out to be 466.84 ± 1.6 Å².
For the sequence “VDIDVPDVNIEGPDAKLK [_VDIDVPDVNIEGPDAK(Gluratylation)LK_]”, the collision cross section by setting is: under setting [24], 479.85 ± 0.49 Å²; under setting [27], 509.66 ± 1.3 Å².
The matching figures for “SNEEGSEEKGPEVR [_SNEEGSEEK(Gluratylation)GPEVR_]”: 407.15 ± 0.96 Å² and 470.21 Å².
In turn, VGEFSGANKEK [_VGEFSGANK(Malonyl)EK_] displayed a collision cross section under setting [5] of 354.12 ± 1.7 Å².
On to “GTITVSAQELKDNR [_GTITVSAQELK(Trimethyl (K))DNR_]”, for which the collision cross section is, setting by setting: under setting [19], 442.48 ± 1 Å²; under setting [10], 479.04 ± 1.8 Å².
As for “GEVQVSDKER [_GEVQVSDK(Trimethyl (K))ER_]”, the collision cross section under setting [19] was 366.73 ± 1.1 Å².
On to “GETASKLQSEISR [_GETASK(Dimethyl (K))LQSEISR_]”, for which the collision cross section came to 398.3 ± 1.1 Å² under setting [23] and 460.41 ± 2.6 Å² under setting [9].
In the case of “TQDQISNIKYHEEFEK [_TQDQISNIK(hydroxyisobutyryl)YHEEFEK_]”, the collision cross section reads like this: under setting [8], 492.05 Å²; under setting [26], 557.98 ± 1.2 Å².
